# Data from patent publication US20220144927A1 (SUMITOMO DAINIPPON PHARMA, published 2022).
# Substitutions are numbered along the chain they refer to.
# B1: antibody 1 (antibody, V domains shown)
# VH: EVQLLESGGGLVQPGGSLRLSCAASGFTFSNYGMSWVRQAPGKGLEWVSTISNSGRYTYFPDSVKGRFTISRDNSKNTLYLQMNSLRAEDTALYYCTRHLDYANYDAMDYWGQGTLVTVSS
# VL: DIVMTQSPSSLSASVGDRVTITCRASKSVTTSDFSYMHWYQQKPGKAPKLLIYLASNLESGVPSRFSGSGSGTDFTLTISSLQPEDFATYYCQHSREFPWTFGGGTKVEIK
# notes: Humanized antibody of the invention; also called H01L01
# B2: antibody 18 (antibody, V domains shown)
# VH: B1 VH with L5V, Q13K, S75A, T78S, L93V, T97A
# VL: DIVMTQTPLSSPVTLGQPASISCRASKSVTTSDFSYMHWLQQRPGQPPRLLIYLASNLESGVPDRFSGSGAGTDFTLKISRVEAEDVGVYYCQHSREFPWTFGQGTKVEIK
# notes: also called H06L06
# B3: antibody 19 (antibody, V domains shown)
# VH: B1 VH with L93V, T97A, R98K
# VL: B2 VL with S11L, P12S, L15P, L40Y, Q41L, R43K, R49Q, A71S
# notes: also called H05L07
# B4: antibody 4 (antibody, V domains shown)
# VH: B1 VH
# VL: DIVMTQSPDSLAVSLGERATINCKASKSVTTSDFSYLHWYQQKPGQPPKLLIYLASNLESGVPDRFSGSGSGTDFTLTISSLQAEDVAVYYCQHSREFPWTFGGGTKLEIK
# notes: Humanized antibody of the invention; also called H01L04
# B5: antibody 13 (antibody, V domains shown)
# VH: B1 VH with A24V, K76R, S85T, L93V, L116P
# VL: B1 VL
# notes: Humanized antibody of the invention; also called H04L01
# B6: antibody 11 (antibody, V domains shown)
# VH: B1 VH with E1L, L5V, L11V, G16R, S49A, L93V
# VL: B1 VL with V3Q, A47S, T76S
# notes: Humanized antibody of the invention; also called H03L03
# B7: antibody 6 (antibody, V domains shown)
# VH: B1 VH with E1L, L5V, L11V, Q13R, V37I, S75A, T78S
# VL: B1 VL with I2V, S10T, K46Q, G104Q, V108L
# notes: Humanized antibody of the invention; also called H02L02
# B8: antibody 9 (antibody, V domains shown)
# VH: B1 VH with E1L, L5V, L11V, G16R, S49A, L93V
# VL: B1 VL
# notes: Humanized antibody of the invention; also called H03L01
# B9: antibody 12 (antibody, V domains shown)
# VH: B1 VH with E1L, L5V, L11V, G16R, S49A, L93V
# VL: B4 VL
# notes: Humanized antibody of the invention; also called H03L04
# B10: antibody 2 (antibody, V domains shown)
# VH: B1 VH
# VL: B1 VL with I2V, S10T, K46Q, G104Q, V108L
# notes: Humanized antibody of the invention; also called H01L02
# B11: antibody 5 (antibody, V domains shown)
# VH: B1 VH with E1L, L5V, L11V, Q13R, V37I, S75A, T78S
# VL: B1 VL
# notes: Humanized antibody of the invention; also called H02L01
# B12: antibody 7 (antibody, V domains shown)
# VH: B1 VH with E1L, L5V, L11V, Q13R, V37I, S75A, T78S
# VL: B1 VL with V3Q, A47S, T76S
# notes: Humanized antibody of the invention; also called H02L03
# B13: antibody 10 (antibody, V domains shown)
# VH: B1 VH with E1L, L5V, L11V, G16R, S49A, L93V
# VL: B1 VL with I2V, S10T, K46Q, G104Q, V108L
# notes: Humanized antibody of the invention; also called H03L02
# B14: antibody 17 (antibody, V domains shown)
# VH: B1 VH with L93V, T97A, R98K
# VL: B1 VL with V3Q, S12A, A13V, V15L, K46L, L77F, F87I, G104Q, I110V
# notes: also called H05L05
# B15: antibody 14 (antibody, V domains shown)
# VH: B1 VH with A24V, K76R, S85T, L93V, L116P
# VL: B1 VL with I2V, S10T, K46Q, G104Q, V108L
# notes: Humanized antibody of the invention; also called H04L02
# B16: antibody 3 (antibody, V domains shown)
# VH: B1 VH
# VL: B1 VL with V3Q, A47S, T76S
# notes: Humanized antibody of the invention; also called H01L03
# B17: antibody 8 (antibody, V domains shown)
# VH: B1 VH with E1L, L5V, L11V, Q13R, V37I, S75A, T78S
# VL: B4 VL
# notes: Humanized antibody of the invention; also called H02L04
# B18: antibody 15 (antibody, V domains shown)
# VH: B1 VH with A24V, K76R, S85T, L93V, L116P
# VL: B1 VL with V3Q, A47S, T76S
# notes: Humanized antibody of the invention; also called H04L03
# B19: antibody 16 (antibody, V domains shown)
# VH: B1 VH with A24V, K76R, S85T, L93V, L116P
# VL: B4 VL
# notes: Humanized antibody of the invention; also called H04L04
# Tests used:
# [1] = molecular target: T1, mucin subtype 5AC (human, UniProt P98088 28-5654, limits assumed); test: ELISA, plate coated with crude extract antigen solution of SW1990 xenograft tumor, HRP anti-human IgG; reference antibody
# T1 construct: Not a purified recombinant protein; also called MUC5AC; crude extract antigen solution
# Procedure: (§1) Various antibodies were added to a 96 well plate coated with various antigens, and the plate was left standing for 1 hr at room temperature. The plate was washed, a blocking solution was added, and the mixture was left standing for 30 min at room temperature. The plate was washed, HRP-conjugated anti-human IgG was added, and the mixture was left standing for 1 hr or longer at room temperature. The plate was washed, a color development reagent (Bethyl Laboratories, Inc.) was added, and the degree of color development was measured by a microplate reader (VersaMax, Molecular Devices, LLC.).
# (§2) In Table 2 and Table 3, a tumor mass collected from a cancer-bearing model mouse transplanted with human pancreatic cancer cell line SW1990 was homogenized, and the supernatant (crude extract antigen solution) after centrifugation was used as an antigen. In Table 4, a mucin fraction obtained by isopycnic centrifugation using cesium chloride from the crude extract antigen solution was used as the antigen.
# [2] = molecular target: T1, mucin subtype 5AC; test: ELISA, plate coated with mucin fraction (CsCl isopycnic centrifugation of SW1990 tumor crude extract), HRP anti-human IgG
# Procedure: as §1, §2
# [3] = molecular target: T1, mucin subtype 5AC; test: ELISA, plate coated with crude extract antigen solution of SW1990 xenograft tumor, HRP anti-human IgG
# Procedure: as §1, §2
binder,measurement,setting,value
B1,in vitro binding activity ratio to antibody 1,[1],1 fold vs antibody 1
B2,in vitro binding activity ratio to antibody 20,[2],0.13 fold vs antibody 20
B3,in vitro binding activity ratio to antibody 20,[2],0.49 fold vs antibody 20
B4,in vitro binding activity ratio to antibody 1,[3],0.99 fold vs antibody 1
same,in vitro binding activity ratio to antibody 20,[2],0.97 fold vs antibody 20
B5,in vitro binding activity ratio to antibody 9,[3],0.9 fold vs antibody 9
B6,in vitro binding activity ratio to antibody 9,[3],1.25 fold vs antibody 9
B7,in vitro binding activity ratio to antibody 1,[3],0.71 fold vs antibody 1
B8,in vitro binding activity ratio to antibody 9,[1],1 fold vs antibody 9
B9,in vitro binding activity ratio to antibody 9,[3],0.91 fold vs antibody 9
B10,in vitro binding activity ratio to antibody 1,[3],1.03 fold vs antibody 1
B11,in vitro binding activity ratio to antibody 1,[3],0.6 fold vs antibody 1
B12,in vitro binding activity ratio to antibody 1,[3],0.65 fold vs antibody 1
B13,in vitro binding activity ratio to antibody 9,[3],0.96 fold vs antibody 9
B14,in vitro binding activity ratio to antibody 20,[2],0.75 fold vs antibody 20
B15,in vitro binding activity ratio to antibody 9,[3],1.04 fold vs antibody 9
B16,in vitro binding activity ratio to antibody 1,[3],0.99 fold vs antibody 1
same,in vitro binding activity ratio to antibody 20,[2],1.56 fold vs antibody 20
B17,in vitro binding activity ratio to antibody 1,[3],0.72 fold vs antibody 1
same,in vitro binding activity ratio to antibody 20,[2],0.7 fold vs antibody 20
B18,in vitro binding activity ratio to antibody 9,[3],1.36 fold vs antibody 9
B19,in vitro binding activity ratio to antibody 9,[3],0.88 fold vs antibody 9
same,in vitro binding activity ratio to antibody 20,[2],1.09 fold vs antibody 20
